Test results from IntAct's records for PubMed 31046837.

Target: at2a2_mouse Atp2a2 (UniProt O55143)
Sequence (O55143 whole entry): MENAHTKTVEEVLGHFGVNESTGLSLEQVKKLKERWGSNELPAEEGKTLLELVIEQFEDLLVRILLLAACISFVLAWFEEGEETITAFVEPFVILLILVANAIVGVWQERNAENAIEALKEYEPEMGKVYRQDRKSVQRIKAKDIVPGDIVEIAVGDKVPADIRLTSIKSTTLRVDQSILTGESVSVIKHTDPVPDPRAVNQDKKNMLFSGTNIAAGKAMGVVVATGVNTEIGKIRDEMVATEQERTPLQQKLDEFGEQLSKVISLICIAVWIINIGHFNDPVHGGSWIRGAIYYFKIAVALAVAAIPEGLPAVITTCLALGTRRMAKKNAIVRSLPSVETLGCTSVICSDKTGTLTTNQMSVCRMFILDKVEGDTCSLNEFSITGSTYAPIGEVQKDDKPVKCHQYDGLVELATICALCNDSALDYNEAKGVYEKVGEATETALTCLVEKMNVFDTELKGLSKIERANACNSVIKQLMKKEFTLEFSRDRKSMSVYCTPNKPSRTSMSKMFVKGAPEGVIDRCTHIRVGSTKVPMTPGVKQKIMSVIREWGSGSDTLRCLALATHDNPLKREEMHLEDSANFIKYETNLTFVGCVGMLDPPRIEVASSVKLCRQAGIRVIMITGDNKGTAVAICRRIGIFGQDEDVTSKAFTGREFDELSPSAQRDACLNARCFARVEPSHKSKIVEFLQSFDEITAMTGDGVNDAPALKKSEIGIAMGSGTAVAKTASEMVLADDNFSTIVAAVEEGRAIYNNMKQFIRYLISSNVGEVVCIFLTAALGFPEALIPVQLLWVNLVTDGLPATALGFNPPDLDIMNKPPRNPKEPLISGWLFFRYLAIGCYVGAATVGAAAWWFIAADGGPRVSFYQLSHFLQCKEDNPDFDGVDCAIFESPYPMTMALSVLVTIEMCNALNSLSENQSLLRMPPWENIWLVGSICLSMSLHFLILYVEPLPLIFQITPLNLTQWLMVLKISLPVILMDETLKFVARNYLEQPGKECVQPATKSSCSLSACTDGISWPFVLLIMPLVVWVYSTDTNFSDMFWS

Substance: Leucine-rich repeat serine/threonine-protein kinase 2 (Homo sapiens), Q5S007 G2019S
- effect of a mutation on the interaction: increasing interaction strength
